For series [1], the target named is Megasphaera NM10-related Cas1 (Megasphaera NM10-related). As to the kind of experiment: cryo-EM structure; 50 µM Cas1, 50 µM Cas2/DEDDh and 12.5 µM prespacer or half-site DNA mixed, dialysed 2 h at room temperature, purified over Superose 6 Increase 10/300 GL; complexes bound to DNA.
Series [2] concerns the target Megasphaera NM10-related Cas2 and DEDDh fusion protein (Cas2/DEDDh) (Megasphaera NM10-related). The series is described as above.
In series [3] the target is T1, Cas1 (type I-E);Cas2/DEDDh (natural Cas2-DEDDh fusion) (Megasphaera NM10-related;Megasphaera …, UniProt A0AA82WPF9;A0AA82WPG7 1-316;1-289, |).
T1 sequence 1: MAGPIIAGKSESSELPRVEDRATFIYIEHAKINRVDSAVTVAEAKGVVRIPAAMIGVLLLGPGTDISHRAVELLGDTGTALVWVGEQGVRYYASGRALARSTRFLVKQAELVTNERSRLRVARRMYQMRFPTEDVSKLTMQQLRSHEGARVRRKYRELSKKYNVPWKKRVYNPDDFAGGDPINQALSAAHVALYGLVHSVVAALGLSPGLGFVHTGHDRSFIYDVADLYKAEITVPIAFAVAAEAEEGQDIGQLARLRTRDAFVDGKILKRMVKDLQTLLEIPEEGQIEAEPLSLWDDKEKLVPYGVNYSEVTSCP
T1 sequence 2: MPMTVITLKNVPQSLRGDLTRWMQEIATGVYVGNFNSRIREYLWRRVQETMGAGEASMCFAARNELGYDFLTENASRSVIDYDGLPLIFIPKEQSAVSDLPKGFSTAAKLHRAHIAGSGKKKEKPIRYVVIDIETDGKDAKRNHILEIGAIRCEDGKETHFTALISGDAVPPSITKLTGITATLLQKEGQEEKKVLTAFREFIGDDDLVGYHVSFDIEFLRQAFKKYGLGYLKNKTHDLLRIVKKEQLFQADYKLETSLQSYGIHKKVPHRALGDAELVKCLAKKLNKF
As to the kind of experiment: cryo-EM structure (2.9 A); Cryo-EM sample buffer not in the material; DNA annealed in 20 mM HEPES pH 7.5, 25 mM KCl, 10 mM MgCl2; protein storage 20 mM HEPES pH 7.5, 500 mM KCl, 1 mM TCEP, 5% glycerol. The following applies: protein: recombinant;recombinant; tags: 10xHis-MBP removed with TEV;10xHis-MBP removed with TEV; chain copies: 4;2; 23 bp duplex, 3' overhangs 15 nt on both strands (5 nt visible).

Series [4] addresses T1, Cas1 (type I-E);Cas2/DEDDh (natural …). The experiment in a line: cryo-EM structure (3.1 A); Cryo-EM sample buffer not in the material; DNA annealed in 20 mM HEPES pH 7.5, 25 mM KCl, 10 mM MgCl2; protein storage 20 mM HEPES pH 7.5, 500 mM KCl, 1 mM TCEP, 5% glycerol. Conditions: protein: recombinant;recombinant; tags: 10xHis-MBP removed with TEV;10xHis-MBP removed with TEV; chain copies: 4;2; 23 bp duplex, 3' overhangs 15 nt on both strands before trimming.

Substitutions are numbered along the chain they refer to.

What is called stoichiometry N is a count of units in the complex or per binding partner. In series [1], Megasphaera NM10-related Cas1 (enzyme) showed a stoichiometry N of 2. Molecule “Megasphaera NM10-related Cas2 and DEDDh fusion protein (Cas2/DEDDh) (enzyme)” gave a stoichiometry N in series [2] of 2.

B1: CryoEM prespacer, PAM-deficient (dsDNA)
DNA 1: ACTCATGATGCACAAGTGGTTGCGCGTGAACCCAGTTG
DNA 2: GCAACCACTTGTGCATCATGAGTGATGAAACCCAGTTG
modifications: phosphorothioate between nt 28 and 29 of each strand
Turning to B1, the binding result in series [3] was “binds”.

B2: CryoEM prespacer, TT PAM-containing (dsDNA)
DNA 1: B1 DNA 1 with A29T, A30T
DNA 2: B1 DNA 2
modifications: phosphorothioate between nt 33 and 34 of strand 1 and between nt 28 and 29 of strand 2
For B2, the binding result in series [4] is “binds”.
